Results from patent publication US5273966.

Key:
[1] = target: high molecular weight binding protein (150K) in normal human serum (human); experiment: radiolabelled IGF-1 incubated with serum; area under the curves of the high and low molecular weight peaks
[2] = target: high molecular weight binding protein (150K) in normal rat serum (rat); experiment: as above

percent bound to the large molecular weight form compared to the authentic IGF-1 [1]: 50 to 60%
percent bound to the large molecular weight form compared to the authentic IGF-1 [2]: 50 to 60%
Substance: O-glycosylated IGF-1 (ligand)
